Results reported in paper PMC11169420, “The kinase ZYG-1 phosphorylates the cartwheel protein SAS-5 to drive centriole assembly in C. elegans” (EMBO Reports, 2024).

Assays:
SAS-6 head domain = SAS-6 head domain (UniProt Q6UVJ0); settings: cited from earlier work
[1] = target: T1, SAS-5::His6, full-length, refolded in vitro (C. elegans, UniProt Q20010 1-404, a glycine codon was introduced immediately next to initiator methionine); experiment: pull-down; GST-ZYG-1 fragment baits (4.32 mM as printed) on magnetic glutathione beads, blocked with Odyssey blocking buffer; full-length SAS-5 prey (0.2 mM as printed) 1 h at 4 °C; washed with 50 mM Tris pH 8.0, 300 mM NaCl, 5 mM DTT; immunoblot with anti-GST and anti-SAS-5; GST alone as negative control; settings: both partners purified
T1 construct: SAS-5 of C. elegans, longer isoform SAS-5a, full length; codon-optimised gene in pET21b (NdeI/HindIII); a glycine codon was put next to the initiator methionine; Prey in the pull-downs with GST-ZYG-1 fragment baits; also called full-length SAS-5; SAS-5::6XHis; not shown: His6, C-terminal, kept
T1 sequence (looked up): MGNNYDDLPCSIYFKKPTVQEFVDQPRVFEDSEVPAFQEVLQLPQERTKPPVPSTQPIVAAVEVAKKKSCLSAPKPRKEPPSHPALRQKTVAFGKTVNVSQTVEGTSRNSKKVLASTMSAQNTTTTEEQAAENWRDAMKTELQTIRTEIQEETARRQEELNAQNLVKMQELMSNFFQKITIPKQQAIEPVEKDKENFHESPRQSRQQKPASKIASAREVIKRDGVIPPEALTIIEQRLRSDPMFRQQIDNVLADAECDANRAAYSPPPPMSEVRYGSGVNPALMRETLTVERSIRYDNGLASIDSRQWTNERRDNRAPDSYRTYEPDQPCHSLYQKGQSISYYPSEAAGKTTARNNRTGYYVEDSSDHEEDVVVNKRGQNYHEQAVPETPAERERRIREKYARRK

Molecule: SAS-6 head domain (from UniProt Q6UVJ0)
- Kd (SAS-6 head domain): 75 µM

B1: GST-ZYG-1(1-250) K41M (kinase domain, C-terminal 6X-His) (domain or fragment, C. elegans, UniProt Q9GT24 1-250, looked up)
chain: MSGGKSGSRLSAYSHLKEIGKGGFGVVYAAQRENGEKVAIMRIDKKVPKNRVWTEIQTMKELKKSKYVVEFYEDFVEDGYTYIVMELCEGGSLQAYVREHGALDDATAVHVLRQLISAVSFMHRVNVIHRDLSAGNVFIKDSKKKKMTVKLGDFGLATTLGRGETTCTIVGTPGFIAPQVYDQEYTQSADVYSLGAVLYTMLTARNPPPKGLPPTCGMSPNAARLVEQMMDTDAKKRIPLTQIVLSEFMY
notes: ZYG-1 of C. elegans, kinase domain, residues 1-250, with K41M (used to reduce toxicity to E. coli); also called kinase domain (amino acids 1-250); not shown: GST, N-terminal, kept; His6, C-terminal, kept
- binding result [1]: binds

B2: GST-ZYG-1 cryptic polo box (CPB) fragment spanning 338-564 (domain or fragment, C. elegans, UniProt Q9GT24 338-564, looked up)
chain: GTVPPSREDRNRSQLWPIRMDRLEGQRVCTAGGRYIVELDTRCRFEVAAQGNFVKRILIVEVDEMVQTVYVHRIPDRTVRGRNGEEELITLTNNPFVYTSYSQMPKEVQNDYMRLQKMVAVTISGRVAKVTFRRPSQFPDAQAQLMENGDLRIKLPRSVIVRKMDNGEIFNCIDGIATQKQAVSGITLTKVNEVYKYLIRFEQCLNGMDRGMVCFPIVFSAGTNMVG
notes: ZYG-1 of C. elegans, cryptic polo box (CPB), residues 338-564; also called ZYG-1 CPB; not shown: GST, N-terminal, kept; His6, C-terminal, kept
- binding result [1]: binds
